Test results: PMC8248744, “High-resolution genetic mapping reveals cis-regulatory and copy number variation in loci associated with cytochrome P450-mediated detoxification in a generalist arthropod pest” (PLoS Genetics, 2021)

Substrate: COC(c1ccc(NC(=O)c2c(C)nn(C)c2C)cc1CC(C)C)(C(F)(F)F)C(F)(F)F
Assay: HPLC-UV substrate depletion, recombinant membranes
Format: biochemical, Tetranychus urticae
Conditions: NADPH-regenerating system, 0.2 M Tris-HCl pH 7.4, 0.25 mM MgCl2, 2.5% acetonitrile, 30°C, N-demethylation at pyrazole, co-expressed with TuCPR

B1: CYP392A16 (Tetranychus urticae) (protein)
chain: MIEVIHSGSIPDGHFTVSTIMFLISNLLSSQPLVNSLIGLALFWLVKYLFNTIQRIRSLPAGPWGLPIVGYLPFIKDDIYLVFDQLSKKYGPVYSLKLGSFDVVLVCDWPHMKDAVANDALLARQHEVFFPGVVEGRSFAEMSGDPWREHRRLSLHILRDVGLGKSTIETLVKEEVDQFLSALENNGKPADFEKCISRSVTNNVSILLFGHKYERDDPTAIAISSANTEVGRSFSFAGVVAFLPWLAELVFKFELFNVTRLKKCFQIVDTHIQDEIVKHQEKNSQEVVDYIDGYLVEKKNREKQNKVDDNFTIEILRRNAGAFYGAGTETVSSTMEWIMVYLVKYPEYQDKIRSEIADVIGFERKPDYVDRNRMPFTMAFIHEIHRIGSVVANNLLRRAASDTKIGNYNIPKDTLVILNFWSVNRDPKLWPNPDEFDPTRFLTEDGSKVVKPPHLIPFSAGKRNCPGESLANVELFLYLVCMLQKYHVKVKPGTKISTEAIFGLSRRPSQLPTFIFEKISNSN
notes: E. coli BL21STAR membrane fraction; with NADPH--cytochrome P450 reductase
- Km: 17.79 (± 3.29 SE) μM
